Substrate: CC(C)=CCC/C(C)=C/CC/C(C)=C/CO[P@@](=O)(O)OP(=O)(O)O
Assay: purified protein
Settings: Mg2+ active site

B1: 5-epi-aristolochene synthase (TEAS) (Nicotiana tabacum) (protein)
chain: MASAAVANYEEEIVRPVADFSPSLWGDQFLSFSIKNQVAEKYAKEIEALKEQTRNMLLATGMKLADTLNLIDTIERLGISYHFEKEIDDILDQIYNQNSNCNDLCTSALQFRLLRQHGFNISPEIFSKFQDENGKFKESLASDVLGLLNLYEASHVRTHADDILEDALAFSTIHLESAAPHLKSPLREQVTHALEQCLHKGVPRVETRFFISSIYDKEQSKNNVLLRFAKLDFNLLQMLHKQELAQVSRWWKDLDFVTTLPYARDRVVECYFWALGVYFEPQYSQARVMLVKTISMISIVDDTFDAYGTVKELEAYTDAIQRWDINEIDRLPDYMKISYKAILDLYKDYEKELSSAGRSHIVCHAIERMKEVVRNYNVESTWFIEGYTPPVSEYLSNALATTTYYYLATTSYLGMKSATEQDFEWLSKNPKILEASVIICRVIDDTATYEVEKSRGQIATGIECCMRDYGISTKEAMAKFQNMAETAWKDINEGLLRPTPVSTEFLTPILNLARIVEVTYIHNLDGYTHPEKVLKPHIINLLVDSIKI
**Q.** For B1, which Km is on record?
**A.** Its Km is 4.47 µM.

Reference: article PMC4570970
